Results as given in the DeepSol protein solubility set.

Assay: soluble on expression in E. coli; label from the status in PepcDB or PDB records

Q: With “MKIRSLIRVRLTRFFPSDRYIKNRCSGADGVLIDFEKKEDKVDDYKLSSFHRLKNSKFSLPKLLVDPVTTNSNQWIPRLIEEKSVDGVAMRNFTDDVISLDNEIFTMIWDTREQRITHSIISYHRINDCDIMWNSSIRTAVQDSLEHDIQPLAARTLRFRDYETAVQEFEILRQIGFTGAVIRNPNLIEMTNEIFEK” as the sequence, how does the “soluble on expression in E. coli” value read?
A: The value was “not soluble”.

Q: For “GHMKGLTEKLMILSHQSIKNLLGKVILNYSEENVRENGYDLRICGDKYYELVQGAELPEKKATLREIEFKERAILSANHTYLFESCEEFNMPADLAVLITLKSTLARNGFLAPPTVIDAGYKGKVNVAITAVYNSSLKKGMATHHLIFLKLDKPTERLYNGKYQGGILI”, which “soluble on expression in E. coli” value is on record?
A: Its value is “soluble”.

Q: With “MGSDKIHHHHHHMKKIIYFITLLFLVGCVDLSENMYNDLGKDNYYQTEQEYDAAFMNQYAFLRTMYAWNVFYLQEITTDEACLPQKGRDGYDGGIYQRMHWHTWTDQDVIINGAWQELFKAVGFCNQVLNDLNNSRSDILPENKKKLYIAESRALRAFFYSMLVDMFGNVPIVEKVSELNPPTKTRTEVFNYVEKEIAEVKDQLLRSTDTGSYGRFTQEAALALLSRLYLNAEVYTGTSRLDDCISVSQTLLQKGYQLESTWDAPFAWNNENSKENIWVIPNDEIVANEMSVLFYRNIHWSQRSQWDWKNPNGGWNGVCTVREFIETYDITHDRRCKYDPQNGMYGQFMWGPQFDLSGNPILGTNEYAGQQLDFTLDLPDMVNNKENAGARNIKYKVKVGAQGMENDFALFRIAEINFNLAEATLRKSNEVDSKALEGINKIRTRAGVSTYATGELTLDELYREKGREMCYETLRRTDMIRFGRFIQPMWDKNYTDKETINLFPIPLQATKLNPELKQNPGYTK” as the sequence, how does the “soluble on expression in E. coli” value read?
A: The value was “not soluble”.

Q: With “MGSDKIHHHHHHMETARHRNTWHIHPDPEALARRLAAAVARMAREAITARGAFHLVVAGGTTPRAAYALLPQLGSDWQCWHLYHGDERCLPPQDPDRNSLMLDTVWLSRVPIPTRQIHHIPAERGADVAARDYAAVLPPHAFDLVLLGVGEDGHTASLFPGHDWGMAKNGPATIAVHDAAKAPPQRVSLSGWRLQYTREMFFMAAGGGKRSALTAWRQGEPIPAATVGTTADIWLDNTAWPEVVPGTI” as the sequence, how does the “soluble on expression in E. coli” value read?
A: Its value is “not soluble”.

Q: With “MSACAPVHRDPPAPASLRAMPGARWLSGVVLGGLSLGLMACGPKDIEGLRTADYLGGDQRSGVLTYRETPPMGGPYNPLWQTCAAYAQPVYNEYAVHSLARGAVWVTYRPGLDAAELDKLKALLAGQPAALLSPYPNLPAPVVMTAWNRQLSAQTADDPRLTRFLKEILPENSAPEKGSPCARGFGGTR” as the sequence, how does the “soluble on expression in E. coli” value read?
A: Its value is “soluble”.

Q: Which “soluble on expression in E. coli” value does the source give for “MSLRIFLCGCVHGSWEVVVNEVNKLVAKGTKIDLIIVAGDTESFRSKSDLESYNYQRQNHDLGTFHKLVSGELKLPCKMLMIGGNNEVGDMIFQLPFGGWVTPDIFFAGINSQIYFGDLLITCQSGIMNGQDYHKCISEKFPVRGCDTHLILHIREVSIFQLYGLKNVPLFVSHEWPSGIPKQYRNIPRMQFYAKSDDKNDFGCPGFVKLLNKHRPKKWYAAHLHVRFDCTLKNGTKFTGVPKVIDKRYKWYELEEYNCNPAGGFKFSGEWINIVKNTERFVKNPKLLQNLDWDEEWRKIYETMNTEDFPEKVDVMEYNDDYQIQTKKFCDSYQIYNPYKEGHHHHHH” here?
A: Its value is “soluble”.

Q: Which “soluble on expression in E. coli” value does the source give for “MGSDKIHHHHHHMTSKITRQANASEDSLLRIFTAPEDSTSTLSIIEQKLSQDLAGFLGNSIAALEKPLSEIETDFSAYQIPTEPKFVSDYADEIMQNLVAHSVHTSAPSFIGHMTSALPYFVLPLSKMMVGLNQNLVKIETSKAFTPLERQVLGMMHNLVYQQSDDFYHQWMHSANHSLGAFCSGGTVANITALWIARNRLLQPRGDFKGVTREGMTKALRFYGYDDLAILVSDRGHYSLGKTADLLGIGRDNIISIPTDEHHKVDVAAMRDAAEKLAQQNIKVMAIVGIAGTTETGNVDPLTELAALASELNCHFHVDAAWGGASLLSKKYSHLLKGIELADSVTIDAHKQMYVPMGAGMVLFKDPELAKAIVHHAEYILRVGSKDLGSQTLEGSRPGMAMLVHACLQIIGRDGYEILINNSLEKARYFGSIIDQHADFELVTAPELCLLTYRYVPKSVQAILTTALANQDSALVASINELLDGLTQFIQKHQREQGKSFVSRTRIKPAKYLRQPTTVFRVVLANPLTSHQILHDVLTEQVEIAALDSEYLPQLLAL” here?
A: Its value is “not soluble”.

Q: For “MTDSDNPRRVLLKLSGEAFGGGKVGIDTQVIRRIAEEIVPAVQQGVQVAIVVGGGNFFRGAELQQAGIDRSRGDYMGMLGTVMNCLALQDFLEQEGQATRVQTAITMGQVAEPYIPLKAIRHLEKGRVVIFGAGAGMPYFSTDTVSIQRSLEIHCDEVLMGKNGVDGVYTADPRKDENAKRFETLSYNRALVDNLAVMDASALSMARDNKKRIRVFGLEEPGNVTRALVGDEIGTLVSTAESRVAELEHHHHHH”, which “soluble on expression in E. coli” value is on record?
A: The value was “soluble”.

Q: For “MGSDKIHHHHHHMPAALPIKPPFKPRDISIVGAGVAGASLALSLLRRGHKVTLYCADAAPGIGASGNRQGAIYPLLTPEDDHLTRLFVPAFLYAKRFVESLAHHPLPFDFCGVLQTGHDERATERIEKLLSKTWPKQVAVRVDADEANHIAGVAIDKGGIYYPQGGWVSPAKLCEAAIEEAKTMGLECHFDVNITSITRADEGWRLNTQTGEIDAHELVLATGHRITELAQTKSLQLAPFRGQVSHVPTRGKLEQLKTVLCAHGYFTPRDASSGSHCMGASYVRGDTSVEYREQEQQENLHKMQESYPGKDWVEYLDISEGSARAGIRMVSRDHLPMAGAAPDVAAIQTQYQAIGHGPKGAQYWQTHAAPVHPGLYIFSGLGSRGLSSGPLIAECLADSLSGTLPVLDGDVMEALNPNRMWLRKLKKGKALD”, which “soluble on expression in E. coli” value is on record?
A: Its value is “not soluble”.

Q: For “MQSCLRLAASLLSAALLCLPAPGAAQTASPAKKELLKFNWGAPTADYYALYVAKDQKLFEEVGLEPNFYFFPSGAPLLAGLKSKSLDVITTGLATVFALGQNVPLKLIYWELDHAAAEGLVVDPAAGIKSYKDIAKAKAIGAPSGTCAQVSLVLMAKELNLKYSNLNIINIAPPLYGNAFKSKSIQAAVAWSPYSSILNADQLPVVNWASDYTPDQGVCPGLTGVRTEFMQQHPDIGLKLVQVQAKAMDMIRKDPELGIGVLMKYLSVSREVAKHIYDREFSRIPTYAQQIDPASPYSLAAKDAGLARKLLIASQALAEVGTIPAPLTPQAIAEAIDPSAIQRYMKGERK”, which “soluble on expression in E. coli” value is on record?
A: Its value is “not soluble”.

Q: With “MHRRSIINHSRPDKLKRGMHVEIASNVINDLQFFDQQIRWAKADLVQQVSRNRLNRARTYRGYLNQCLPHELVADIQRAVIKSINAISLINLEHHHHHH” as the sequence, how does the “soluble on expression in E. coli” value read?
A: Its value is “not soluble”.

Q: Which “soluble on expression in E. coli” value does the source give for “MGSDKIHHHHHHIRPIQRGKANAKVEFGAKIDCSLSEGVVDIERFDFTAFSEGQDFTETLDHYYDLHGHYPDEVLADTLYRNRENLKLCKDLGIRVCGPKLGRHPKNVDAAKRREDTDAENRRGTIERRFAFMKGTLGLDLVNTRTAESLAVKIDAAIVLSNALTLLRVFAIPILILAKFEGEAYRIRYKFTTRVEDMLA” here?
A: The value was “not soluble”.

Q: Which “soluble on expression in E. coli” value does the source give for “MKKLINKKETFLTDMLEGLLIAHPELDLIANTVIVKKAKKEHGVAIVSGGGSGHEPAHAGFVAEGMLDAAVCGEVFTSPTPDKILEAIKAVDTGDGVLLVVKNYAGDVMNFEMAQELAEMEGINVQTVIVRDDIAVTNEVQRRGVAGTVFVHKLAGYLAEKGYSLTEIKSRVEALLPEIKSIGMAIEPPLVPTTGKYGFDIEDDKMEIGIGIHGEKGIHREEVKDIDHIVGTLLDELYKEVTANDVILMVNGMGGTPLSELNIVTKYIQQNLAARTVNVAKWFVGDYMTSLDMQGFSITIVPNKPEYLEAFLAPTTSQYFKLEHHHHHH” here?
A: Its value is “soluble”.

Q: For “MGSDKIHHHHHHMAVFSQYFGKLNQYKNALTQKVDNYWTLSCFQDVAAINPWLVPGQGRKTGSSIVLKNDVLVELGSPEAGSCSMTLYTNSPHQITDGWITLMGSDITEYTPKKLPFGQVIMVGGEHLTEEDYYYLLQNLNVSEMIEGYMIRSTAESIWCRISKDAAKNGFNFHVLGSVLNWHIKQILPKVKAVEIVFVTTTKEDIEELNQISKEVGEIGRRIKERIWREKGVDIYKCVPGGHCGACEDKTVCDTIRKIGAGR”, which “soluble on expression in E. coli” value is on record?
A: Its value is “not soluble”.

Q: For “MEERNHENTLEKDLEAVGQEAQALEERLKAAEEELKGLKDKYLRLLADFDNYRKRMEEELKAREREGVLKALRALLPVLDDLDRALEFAEASPESIRQGVRAIRDGFFRILAGLGVEEVPGEGEAFDPRYHEAVGLLPGEPGKVAKVFQRGFRMGEALVRPARVAVGEEKREEADLE”, which “soluble on expression in E. coli” value is on record?
A: Its value is “soluble”.

Q: Which “soluble on expression in E. coli” value does the source give for “ECPVFEPSWAEFRDPLGYIAKIRPIAEKSGICKIRPPADWQPPFAVEVDNFRFTPRIQRLNEL” here?
A: Its value is “not soluble”.

Q: For “MGSDKIHHHHHHMKLGVNLCFAVKRWLEPDRLAGLVRDDLGLEYVQYTYDLTDPWWPDIERDRRAIAYAKAFRKAGLTIESTFGGLASYTYNHFLAPTLELQSLGYQHLKRAIDMTAAMEVPATGMPFGSYSAADALNPARREEIYAIARDMWIELAAYAKRQGLSMLYVEPVPLATEFPSSAADAARLMADLDGRTEIPVRLLVDWGHALFEPLFGPEADMDHWMDLCQPWIAAYHIQQTDGQLDRHWSFTQPGVVTPQRLQDFWDKYALTDQTFFAEILYPFEARDEDVLADMIASVKALKAASPAA”, which “soluble on expression in E. coli” value is on record?
A: Its value is “not soluble”.

Q: For “MTRHGKNSTAASVYTYHERRRDAKASGYGTLHARLGADSIKEFHCCSLTLQPCRNPVISPTGYIFDREAILENILAQKKAYAKKLKEYEKQVAEESAAAKIAEGQAETFTKRTQFSAIESTPSRTGAVATPRPEVGSLKRQGGVMSTEIAAKVKAHGEEGVMSNMKGDKSTSLPSFWIPELNPTAVATKLEKPSSKVLCPVSGKPIKLKELLEVKFTPMPGTETAAHRKFLCPVTRDELTNTTRCAYLKKSKSVVKYDVVEKLIKGDGIDPINGEPMSEDDIIELQRGGTGYSATNETKAKLIRPQLELQ”, which “soluble on expression in E. coli” value is on record?
A: Its value is “soluble”.

Q: For “MGSDKIHHHHHHMQMKQVLLEARQDFLSLLKRRGWKEKDLNILRGIFLGELSRVDVPADIFELAIKEAVKGNLKLSSKLLGVSEIDTLEILFWYLPKKYPLPSERLKKRLKAESVKEFIEEANRLRVKLGKKDFMELYLHLEEAEEEEEKRENTDLLERVRNLSIEKLSESEIEELRYFYSLLDLRGKESVRTLNVHPYILSAIIRNPSAPIVIDGSNLLWRGGLSVSYIYEVFERLAVFREFFFPYRIVFDRNAEFVLPVHERKGFERWKNSPNVLFESPADGLIISLANTMDAVVLSGDRFRDHGLPRRVRVLTPEEIEKG”, which “soluble on expression in E. coli” value is on record?
A: The value was “not soluble”.

Q: With “MSTGRTAITQPLRRLMRCSRALRRGTWPCSIGLQGIPIKSTPLQLRSCAQRLTFPGTSTGFLWEVWAMSYLRYVKIIGTVHVSPESVREVRETIIREKPDAIALELDYPRLLALLRRERLTLPQALKLGKMGIFGFILQELEMFFGRSFGESPGEEMIEAYKAAASLGIPVYLIDKPVNETLAGMLSSPPIEKLRFGIEVLASLLPGKLKELDYSYLMKEFREKFPHMYKVLVEERNLYMAINLMRIVDSLLEKKKKVKVVAVVGLGHKKGIERILNAHKPRAVKINSL” as the sequence, how does the “soluble on expression in E. coli” value read?
A: Its value is “not soluble”.

Q: Which “soluble on expression in E. coli” value does the source give for “MKPVTLYDVAEYAGVSYQTVSRVVNQASHVSAKTREKVEAAMAELNYIPNRVAQQLAGKQSLLIGVATSSLALHAPSQIVAAIKSRADQLGASVVVSMVERSGVEACKAAVHNLLAQRVSGLIINYPLDDQDAIAVEAACTNVPALFLDVSDQTPINSIIFSHEDGTRLGVEHLVALGHQQIALLAGPLSSVSARLRLAGWHKYLTRNQIQPIAEREGDWSAMSGFQQTMQMLNEGIVPTAMLVANDQMALGAMRAITESGLRVGADISVVGYDDTEDSSCYIPPLTTIKQDFRLLGQTSVDRLLQLSQGQAVKGNQLLPVSLVKRKTTLAPNTQTASPRALADSLMQLARQVSRLESGQ” here?
A: The value was “soluble”.

Q: With “MANDGYFEPTQELSDETRDMHRAIISLREELEAVDLYNQRVNACKDKELKAILAHNRDEEKEHAAMLLEWIRRCDPAFDKELKDYLFTNKPIAHE” as the sequence, how does the “soluble on expression in E. coli” value read?
A: Its value is “soluble”.
